Biological target: taxol-stabilized microtubules assembled from bovine brain tubulin (bovine) (UniProt Q6B856)
Experiment: co-sedimentation; various amounts of MBP-GPT2 with a constant amount of taxol-stabilized MTs polymerized from 1 uM tubulin heterodimer; fit of q = (qmax x c)/(Kd + c), one GPT2 binding site on the tubulin dimer assumed

stoichiometry N (mol of GPT2 per mol of tubulin dimer): 2.5
Substance: MBP-GPT2 (full-length Growing Plus-end Tracking protein 2 fused to maltose-binding protein) (from UniProt Q94B38 69-388) (natural protein)
